What was measured:
[1] = target: HIV-1 Gag polyprotein, uncleaved, in immature virus particles (MA domain of Gag) (HIV-1); experiment: cryo-EM structure
[2] = target: HIV-1 matrix protein (MA), cleaved, in mature cHIV particles (HIV-1); experiment: cryo-EM structure

Row | Substance | stoichiometry N [1] | stoichiometry N [2]
1 | HIV-1 Gag polyprotein, uncleaved, in immature virus particles (MA domain of Gag) (natural protein) | 3 | –
2 | HIV-1 matrix protein (MA), cleaved, in mature cHIV particles (natural protein) | – | 3

From PMC7611776
